This is an account of results in PMC4731787, “Structural basis for the recognition of two consecutive mutually interacting DPF motifs by the SGIP1 μ homology domain” (Scientific Reports, 2016).

For experiment [1], the target named is T1, FCHo1 µHD (residues 623 to 889) (Homo sapiens, UniProt O14526).
T1 construct: GST (N, cleaved yes); made in house; host or cells: Escherichia coli (as for the SGIP1 μHD)
T1 sequence (O14526 623-889): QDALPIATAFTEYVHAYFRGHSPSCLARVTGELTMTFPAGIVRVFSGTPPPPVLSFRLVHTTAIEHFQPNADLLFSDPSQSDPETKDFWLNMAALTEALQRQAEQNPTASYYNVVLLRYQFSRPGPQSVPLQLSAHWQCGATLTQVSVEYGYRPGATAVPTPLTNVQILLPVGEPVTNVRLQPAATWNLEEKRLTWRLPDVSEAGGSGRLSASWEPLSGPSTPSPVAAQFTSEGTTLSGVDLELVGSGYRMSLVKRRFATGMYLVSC
Briefly: ITC of Eps15 fragments with the FCHo1 μHD. It counts as binding. As to conditions: for Kd / -TΔS / ΔG / ΔH: 25 °C; for Kd: 50 mM Tris-HCl pH 8.0, 50 mM NaCl, global fit of two runs; for Kd / -TΔS / ΔG / ΔH / N (binding ratio of Eps15 fragment to FCHo1 μHD): single-site model; for Kd / ΔH / N (binding ratio of Eps15 fragment to FCHo1 μHD): ± 68.3% confidence interval. How it is done: (§1) For the majority of the ITC experiments, the SGIP1 μHD, its mutants, or the FCHo1 μHD, in 50 mM Tris-HCl buffer (pH 8.0) containing 50 mM NaCl, was loaded in the sample cell, in a volume of 1.42 ml, and titrated with various Eps15-derived fragments or peptides in the same buffer, with an initial 5 μl injection and subsequent 10 μl injections, for a total of 25 injections. The titrations were performed while the samples were stirred at 310 r.p.m. at 25 °C. Each injection was followed by an interval of 4 min, to allow baseline stabilization. For the other ITC experiments indicated in Supplementary Table 2, the Eps15-derived fragments or peptides in the sample cell were titrated with the SGIP1 or FCHo1 μHD. All ITC experiments were performed on a VP-ITC microcalorimeter (MicroCal, LLC) and repeated twice, and the data were processed with the program NITPIC[42]. The two data sets from each ITC experiment were analyzed by global weighted least-squares fitting with the program SEDPHAT[43]. Figures for the ITC data were created with the program GUSSI (http://biophysics.swmed.edu/MBR/software.html). To obtain the values of the traditional stoichiometric parameter N in our ITC data analyses (Supplementary Table 2), we used the values of the parameters of the incompetent fractions of proteins and ligands. […] The values of the incompetent fractions are between 0 and 1, whereas the other parameter affecting the traditional parameter N, the number of sites, was fixed as 1 and 2, for the single- and two-site models, respectively. Thus, in the two-site model, the values of N for the first and second sites are identical in our ITC data analyses (Supplementary Table 2).

Experiment [2] deals with T2, SGIP1 μHD (residues 552 to 828) (Homo sapiens, UniProt Q9BQI5).
T2 construct: the SGIP1 μHD (residues 552 to 828); GST (N, cleaved yes); made in house; host or cells: Escherichia coli BL21-Gold (DE3) or Rosetta2
T2 sequence (Q9BQI5 552-828): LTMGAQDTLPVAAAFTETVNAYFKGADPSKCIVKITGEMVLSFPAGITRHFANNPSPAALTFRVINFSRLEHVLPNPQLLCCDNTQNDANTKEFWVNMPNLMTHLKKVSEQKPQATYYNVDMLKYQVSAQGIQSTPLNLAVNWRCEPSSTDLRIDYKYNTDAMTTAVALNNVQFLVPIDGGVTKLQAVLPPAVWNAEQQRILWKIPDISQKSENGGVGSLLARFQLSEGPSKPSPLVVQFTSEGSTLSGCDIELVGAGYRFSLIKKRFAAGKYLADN
The experiment in a line: ITC of Eps15 fragments with the SGIP1 μHD. The format is binding. The settings on record: for Kd: 50 mM Tris-HCl pH 8.0, 50 mM NaCl, global fit of two runs. The procedure: as §1

Experiment [3] deals with α-adaptin appendage domain (residues 711 to 955). Briefly: ITC of Eps15 fragments with the α-adaptin appendage domain. It counts as binding, human.
In experiment [4] the target is appendage domain of human α-adaptin, residues 711 to 955 (human) (UniProt O95782). The experiment in a line: ITC; µHD, µHD mutant or α-adaptin appendage domain in the sample cell, titrated with the Eps15 fragment or peptide; 50 mM Tris-HCl (pH 8.0), 50 mM NaCl, 25 °C; VP-ITC; two data sets fitted globally (NITPIC, SEDPHAT); single-site model. In general terms: In ITC the heat of successive injections is recorded.

For experiment [5], the target named is T3, SGIP1 µ homology domain (µHD), residues 552 to 828 (human, UniProt Q9BQI5-1 552-828).
T3 construct: pGEX-6P-1 construct cut with 3C protease; also called SGIP1 µHD; human SGIP1 µHD (aa552–828); source: E. coli BL21-Gold (DE3) or Rosetta2, purified (Glutathione Sepharose 4B, 3C protease cleavage, Superdex 200)
T3 sequence (looked up): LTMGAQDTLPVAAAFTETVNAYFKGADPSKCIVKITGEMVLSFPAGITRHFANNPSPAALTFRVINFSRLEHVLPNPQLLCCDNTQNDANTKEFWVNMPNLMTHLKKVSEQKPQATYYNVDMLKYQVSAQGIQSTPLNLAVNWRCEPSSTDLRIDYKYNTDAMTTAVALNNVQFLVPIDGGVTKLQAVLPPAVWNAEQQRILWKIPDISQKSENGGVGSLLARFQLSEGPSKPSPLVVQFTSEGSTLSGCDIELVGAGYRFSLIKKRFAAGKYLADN
The experiment is described as above. As to conditions: both partners purified.

Setting [6] is: FCHo1 μHD in cell titrated with fragment.
[7] abbreviates: fragment in cell titrated with μHD (Experiment 37a).
Setting [8] is: 25 °C, fragment in cell titrated with μHD, single-site model.
The mark [9] stands for this setting: 25 °C, fragment in cell titrated with μHD, two-site model, first site.
Where [10] appears, read: 25 °C, fragment in cell titrated with μHD, two-site model, second site.

Read-outs that look alike come from different tables or passages of the source. Where no end group is shown, it is not given here. GST = glutathione S-transferase fusion tag

For “Eps15-618–654: Eps15 fragment, 37-residue region containing six consecutive DPF motifs; high-affinity binding site (DFFQSDPFVGSDPFKDDPFGKIDPFGGDPFKGSDPFA; UniProt P42566 618-654, looked up, fragment)”, the “Kd for the FCHo1 μHD (in words)” value in experiment [1] is listed as “in the nanomolar range”. For the same molecule, the Kd (in general, a measure of binding affinity in units of concentration) in experiment [1] (Eps15 fragment in cell titrated with μHD (Experiment 37a)) was 0.19 ± 0.09 µM; in experiment [1] (setting [6]), 0.27 ± 0.1 µM; in experiment [2] (25 °C, Eps15 fragment in cell titrated with SGIP1 μHD, two-site model, second site, 68.3% confidence interval, read-out: Kd, second site) it was 55.5 µM; in experiment [2] (25 °C, Eps15 fragment in sample cell titrated with SGIP1 μHD, single-site model, ± 68.3% confidence interval, read-out: Kd) it was 0.42 ± 0.25 µM. The “-TΔS” value was 2.81 kJ/mol in experiment [1] (setting [6]), -6.577 kJ/mol in experiment [1] (setting [7]), 1.16 kJ/mol in experiment [2] (setting [8]) and -9.811 kJ/mol in experiment [2] (setting [9]). In addition, the ΔG was -37.51 kJ/mol in experiment [1] (setting [6]), -38.32 kJ/mol in experiment [1] (setting [7]), -36.42 kJ/mol in experiment [2] (setting [8]) and -41.02 kJ/mol in experiment [2] (setting [9]). The ΔH in experiment [1] (setting [6]) is -40.33 ± 1.59 kJ/mol; in experiment [1] (setting [7]), -31.74 ± 1.67 kJ/mol; in experiment [2] (25 °C, fragment in cell titrated with μHD, single-site model, ± 68.3% confidence interval), -37.58 ± 2.67 kJ/mol; in experiment [2] (25 °C, fragment in cell titrated with μHD, two-site model, first site, ± 68.3% confidence interval), -31.21 ± 0.703 kJ/mol. The “N (binding ratio of Eps15 fragment to FCHo1 μHD)” value in experiment [1] (setting [6]) was 0.59 ± 0.02; in experiment [1] (setting [7]), 0.70 ± 0.03. For the same molecule, the Strength of affinity entry in experiment [1] (human FCHo1 µHD (aa623–889), Supplementary Table 3, This study) is given as “high”; in experiment [2] (human SGIP1 µHD (aa552–828), Supplementary Table 3, This study) it was “high”. Moreover, the “-TΔS, second site” value in experiment [2] (setting [10]) came out at 15.57 kJ/mol. Moreover, the “ΔG, second site” value in experiment [2] (setting [10]) is -24.71 kJ/mol. Also, the “ΔH, second site” value in experiment [2] (25 °C, fragment in cell titrated with μHD, two-site model, second site, 68.3% confidence interval) is -9628 (< -6103) cal/mol. The “N (binding ratio of Eps15 fragment to μHD)” value amounted to 0.81 ± 0.04 in experiment [2] (fragment in cell titrated with μHD, single-site model, ± 68.3% confidence interval) and 0.88 ± 0.02 in experiment [2] (fragment in cell titrated with μHD, two-site model, first site (N identical for both sites), ± 68.3% confidence interval). Moreover, the “N, second site” value in experiment [2] (fragment in cell titrated with μHD, two-site model, second site (N identical for both sites), ± 68.3% confidence interval) is 0.88 ± 0.02.

In the case of “Eps15-661–720: Eps15 fragment spanning residues 661 to 720, 4 DPF motifs (QSTDPFATSSTDPFSAANNSSITSVETLKHNDPFAPGGTVVAASDSATDPFASVFGNESF; UniProt P42566 661-720, looked up, fragment)”, in experiment [3], the “Kd for the α-adaptin appendage domain (in words)” value is given as “in the nanomolar range”. The same molecule registered a Kd in experiment [3] (25 °C, appendage domain titrated with Eps15 fragment, single-site model, global fit of two runs, ± 68.3% confidence interval) of 0.27 ± 0.13 µM. For the same molecule, in experiment [3] (25 °C, single-site model), the “-TΔS” value was 24.94 kJ/mol and the ΔG is -37.53 kJ/mol. In addition, the ΔH in experiment [3] (25 °C, single-site model, ± 68.3% confidence interval) was -62.471 ± 7.916 kJ/mol.

B1: Eps15-661–720 (domain or fragment)
chain: GPLGSYQSTDPFATSSTDPFSAANNSSITSVETLKHNDPFAPGGTVVAASDSATDPFASVFGNESF
For B1, in experiment [4], the Kd was found to be 0.27 µM and the stoichiometry N (usually a count of units in the complex or per binding partner) was 0.47.

B2: Eps15-628–654 (peptide)
peptide: Ac-YSDPFKDDPFGKIDPFGGDPFKGSDPFA-NH2
notes: artificial N-terminal Tyr; source: synthetic peptide (Eurofins Genomics)
For B2, in experiment [5], the “stoichiometry N” value was 0.67.

B3: Eps15-640–649 (peptide)
peptide: Ac-YDPFGGDPFKG-NH2
notes: extra (artificial) N-terminal Tyr residue, to facilitate the concentration determination by absorbance; source: synthetic peptide (Eurofins Genomics)
On to B3, for which, in experiment [5], binding was put at a Kd of 30.2 µM and the “stoichiometry N” value was 0.66.

B4: Eps15-640–649D640N (peptide)
peptide: Ac-YNPFGGDPFKG-NH2
notes: as for B2
In experiment [5], B4 returned a Kd of 103 µM.

B5: Eps15-640–649D640E (peptide)
peptide: Ac-YEPFGGDPFKG-NH2
notes: as for B2
Molecule B5 came in with a Kd in experiment [5] of 325 µM.

B6: Eps15-640–649D645N (peptide)
peptide: Ac-YDPFGGNPFKG-NH2
notes: as for B2
In experiment [5], B6 yielded a Kd of 73.1 µM.

B7: Eps15-640–649F642W (peptide)
peptide: Ac-YDPWGGDPFKG-NH2
notes: as for B2
In experiment [5], B7 came in with an equilibrium dissociation constant (Kd) of 229 µM.

B8: Eps15-645–654 (peptide)
peptide: Ac-YDPFKGSDPFA-NH2
notes: as for B3
For the molecule B8, in experiment [5], the equilibrium dissociation constant (Kd) was determined as 22.4 µM and the “stoichiometry N” value is 0.75.

B9: GST-Eps15-628–654 (domain or fragment, human)
chain: {GST}-SDPFKDDPFGKIDPFGGDPFKGSDPFA
notes: source: E. coli, purified (Glutathione Sepharose 4B, glutathione elution, Superdex 200); not shown: GST, N-terminal, kept
B9: in experiment [5], the Kd came to 1 µM and the “stoichiometry N” value came out at 0.86.

B10: Eps15-622–637 (peptide)
peptide: Ac-YSDPFVGSDPFKDDPFG-NH2
notes: as for B2
Turning to B10, in experiment [5], binding was characterised by a dissociation constant (Kd) of 4.9 µM and the “stoichiometry N” value was determined as 0.85.

B11: Eps15-662–676 (peptide)
peptide: Ac-YSTDPFATSSTDPFSA-NH2
notes: as for B2
Molecule B11 showed a Kd in experiment [5] of 125 µM.

B12: GST-Eps15-628–644 (domain or fragment, human)
chain: {GST}-SDPFKDDPFGKIDPFGG
notes: as for B9
Take B12: in experiment [5], the Kd is 0.65 µM and the “stoichiometry N” value was 0.92.

B13: Eps15-661–790 (domain or fragment)
chain: GPLGSYQSTDPFATSSTDPFSAANNSSITSVETLKHNDPFAPGGTVVAASDSATDPFASVFGNESFGGGFADFSTLSKVNNEDPFRSATSSSVSNVVITKNVFEETSVKSEDEPPALPPKIGTPTRPCPLPPGKRSW
With B13, in experiment [4], the Kd is 0.69 µM and the stoichiometry N was 1.19.
